Experimental data reported in the supplement of paper PMC10567573.

B1: FAM189A2 (parent)
chain: CALNALTTTVCLVAAALRYLQIFA
B2: ZNF511 (parent)
chain: EPLPVERDPAAGAAPFRFVARPVR

Variants of: B1
Assay: protein stability index of a GFP-peptide fusion (GPS, HEK-293T) (PSI 1-6); higher = more stable
Settings: c terminus: a fixed tail appended
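Further: lentivirally expressed fusions sorted by FACS into six bins by GFP to DsRed ratio, PSI derived from sequencing read proportions per bin multiplied by bin number.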

Protein stability index of substitutions, site by site:
F23: Y 2.85
A24: C 3.96 | D 2.51 | E 2.8 | F 2.59 | G 4.19 | H 3.64 | I 2.19 | L 2.63 | M 2.65 | N 1.88 | P 2.09 | S 4.25 | T 3.23 | V 3.43 | W 2.96 | Y 3.32

Variants of: B2
Assay: as above
Settings: c terminus: a fixed tail appended

Protein stability index of substitutions, site by site:
E1: A 2.57 | C 2.64 | D 2.73 | F 2.85 | G 1.85 | H 2.2 | I 2.12 | K 2.06 | L 2.69 | M 2.38 | N 2 | P 2.23 | Q 2.9 | R 2.39 | S 2.13 | T 2.44 | V 2.27 | W 2.35 | Y 1.77
P2: A 2.66 | C 2.08 | D 2.55 | E 2.23 | F 1.72 | G 2.75 | H 2.12 | I 2.12 | K 2.06 | L 2.37 | M 2.3 | N 1.99 | Q 1.94 | R 2.36 | S 2.84 | T 2.1 | V 2.03 | W 1.8 | Y 2.45
L3: A 2.46 | C 2.16 | D 2.1 | E 2.97 | F 2.01 | G 2.23 | H 2.56 | I 2.45 | K 2.4 | M 2.28 | N 2.76 | Q 2.64 | R 3.45 | S 3.09 | T 2.3 | V 2.23 | W 2.64 | Y 2.26
P4: A 2.88 | C 1.91 | D 2.9 | E 2.43 | F 2.52 | G 2.63 | H 2.14 | I 2.9 | K 2.09 | L 2.27 | M 2.66 | N 2.29 | Q 1.99 | R 3.23 | S 3.43 | T 2.8 | V 2.49 | W 1.58 | Y 1.64
V5: A 2.18 | C 2.39 | D 2.54 | E 2.17 | F 2.12 | H 1.96 | I 2.46 | K 1.77 | L 2.23 | M 2.71 | N 2.82 | P 2 | Q 2.37 | R 2.85 | S 2.56 | T 1.83 | W 2.64 | Y 2.1
E6: A 2.92 | C 3.25 | D 1.68 | F 3.14 | G 2.08 | H 2.44 | I 2.34 | K 1.99 | L 2.98 | M 2.52 | N 2.5 | P 3 | Q 2.52 | R 3.13 | S 1.96 | T 2.6 | V 3.22 | W 1.56 | Y 2.03
R7: A 2.25 | C 2.06 | D 2.9 | E 3.03 | F 2.1 | G 2.1 | H 2.57 | I 2.91 | K 2.12 | L 2.82 | M 2.09 | N 2.32 | P 2.22 | Q 2.65 | S 2.34 | T 3 | V 2.42 | W 1.05 | Y 1.75
D8: A 2.26 | C 2.37 | E 2.13 | F 2.57 | G 1.91 | H 2.25 | I 2.91 | L 2.22 | M 2.46 | N 3.17 | P 2.4 | Q 2.12 | R 2.21 | S 2.36 | T 2.99 | V 2.4 | W 1.91 | Y 2.63
P9: A 1.72 | C 2.34 | D 2.38 | E 2.2 | F 2.17 | G 1.96 | H 2.59 | I 2.34 | K 1.46 | L 2.42 | M 2.73 | N 2.24 | Q 1.98 | R 1.54 | S 2.08 | T 2.74 | V 1.92 | W 1.33 | Y 2.12
A10: C 1.88 | D 2.46 | E 2.99 | F 1.64 | G 2.17 | H 1.87 | I 2.44 | K 1.72 | L 2.71 | M 2.11 | N 3.07 | P 2.41 | Q 2.11 | R 2.55 | S 2.23 | T 2.15 | V 1.38 | W 1.43 | Y 2.97
A11: C 2.18 | D 2.33 | E 3 | F 2.02 | G 1.83 | H 2.61 | I 3.02 | K 2.34 | L 1.86 | M 1.71 | N 1.75 | P 2.68 | Q 2.12 | R 1.78 | S 2.43 | T 2.08 | V 1.42 | W 1.98 | Y 1.88
G12: A 2.06 | C 2.79 | D 2.65 | E 2.09 | F 2.01 | H 2.64 | I 1.46 | K 2.52 | L 2.4 | M 2.38 | N 2.27 | P 1.76 | Q 2.55 | R 2.33 | S 2.02 | T 1.64 | V 1.92 | W 1.67 | Y 1.96
A13: C 2 | D 3.26 | E 2.62 | F 1.94 | G 2.48 | H 2.43 | I 1.66 | K 2.71 | M 3.42 | N 2.58 | P 2.37 | Q 2.6 | R 2.34 | S 3.04 | T 2.5 | W 1.77 | Y 2.02
A14: C 2.2 | D 4.71 | E 4.11 | G 2.55 | H 2.53 | I 1.31 | K 3.16 | L 2.44 | M 2.42 | N 2.69 | P 2.52 | Q 2.91 | R 2.68 | S 3.27 | T 2.29 | V 1.51 | W 2.47 | Y 1.96
P15: A 3.76 | C 3.77 | D 4.21 | E 3.04 | F 3.23 | G 3.84 | H 4.05 | I 3.22 | K 4.09 | L 3.68 | M 3.73 | N 3.64 | Q 3.78 | R 3.78 | S 4.09 | T 3.94 | V 3.12 | W 2.32
F16: A 4.67 | C 4.08 | D 5.52 | E 5.25 | G 5.43 | H 4.75 | I 4.73 | K 4.67 | L 4.06 | M 3.69 | N 4.86 | P 5.26 | Q 5.34 | R 5.16 | S 4.88 | T 4.52 | V 4.62 | W 2.46 | Y 3.82
R17: A 2.96 | C 3.88 | D 4.13 | E 4.94 | F 2.56 | G 4.86 | H 4.17 | I 3.6 | K 4.42 | L 3.64 | M 3.88 | N 3.45 | P 4.88 | Q 4.65 | S 3.87 | T 4.19 | V 4.21 | W 3.4 | Y 2.98
F18: A 4.83
